This passage reports binding signal results from PMC6555819, “Comprehensive study of nuclear receptor DNA binding provides a revised framework for understanding receptor specificity”.

One series concerns the target THRa:RXRa (Homo sapiens, UniProt P10827;P19793 full;full). The experiment in a line: no ligand; PBM; 90 nM : 90 nM RXRa; PBS pH 7.4, 2% milk, 0.02% Triton X-100, 1 mM DTT, BSA, 0.4 mg/ml salmon testes DNA. Particulars: tags: His kept;His cleaved; copies: 1;1; label: surface-attached array probe.
The next series addresses RARg:RXRa (Homo sapiens, UniProt P13631;P19793 full;full). Kind of series: no ligand; PBM; 270 nM : 90 nM RXRa; PBS pH 7.4, 2% milk, 0.02% Triton X-100, 1 mM DTT, BSA, 0.4 mg/ml salmon testes DNA. To be noted: tags: His kept;His cleaved; copies: 1;1; label: surface-attached array probe. The procedure, abridged:
(§1)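 Binding z-scores take random background probes as their reference. They come from custom Agilent 4×180K protein-binding microarrays incubated 1 h with ligand-free nuclear receptor dimers, with antibodies against each partner (one per run) detecting binding. Scanned fluorescence was regression-normalized.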

In the next series the target is VDR:RXRa (Homo sapiens, UniProt P11473;P19793 full;full). Described as above. Particulars: tags: His kept;His cleaved; copies: 1;1; label: surface-attached array probe. The procedure, abridged: as §1
Sequence of VDR:RXRa (P11473 whole entry, chain 1 of 2): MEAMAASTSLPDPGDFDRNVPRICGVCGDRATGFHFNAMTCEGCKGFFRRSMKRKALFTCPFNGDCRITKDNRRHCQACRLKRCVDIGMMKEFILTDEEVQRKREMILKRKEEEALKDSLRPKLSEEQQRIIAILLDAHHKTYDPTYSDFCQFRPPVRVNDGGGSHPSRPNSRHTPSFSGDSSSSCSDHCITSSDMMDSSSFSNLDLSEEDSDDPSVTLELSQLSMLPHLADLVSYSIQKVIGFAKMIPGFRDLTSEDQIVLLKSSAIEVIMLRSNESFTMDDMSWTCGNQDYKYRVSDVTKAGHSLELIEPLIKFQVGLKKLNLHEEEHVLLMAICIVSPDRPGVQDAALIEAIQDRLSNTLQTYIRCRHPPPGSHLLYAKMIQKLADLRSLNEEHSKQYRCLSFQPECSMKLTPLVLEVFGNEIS
Sequence of VDR:RXRa (P19793 whole entry, chain 2 of 2): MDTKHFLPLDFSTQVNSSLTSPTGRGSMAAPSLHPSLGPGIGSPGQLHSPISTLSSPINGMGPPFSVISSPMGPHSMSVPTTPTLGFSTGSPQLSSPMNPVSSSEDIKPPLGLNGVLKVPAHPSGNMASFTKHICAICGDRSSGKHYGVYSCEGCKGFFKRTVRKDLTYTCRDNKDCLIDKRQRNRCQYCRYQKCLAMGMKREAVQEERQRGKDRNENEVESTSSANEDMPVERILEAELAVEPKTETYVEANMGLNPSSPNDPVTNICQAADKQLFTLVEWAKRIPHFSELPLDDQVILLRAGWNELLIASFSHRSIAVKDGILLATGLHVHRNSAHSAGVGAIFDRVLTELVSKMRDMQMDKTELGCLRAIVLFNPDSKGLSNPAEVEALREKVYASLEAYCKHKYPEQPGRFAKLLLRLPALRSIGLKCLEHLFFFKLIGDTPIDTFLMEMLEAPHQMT
Another series deals with PXR:RXRa (Homo sapiens, UniProt O75469;P19793 full;full). Described as above. Particulars: tags: His kept;His cleaved; copies: 1;1; label: surface-attached array probe. An outline of the steps:
as §1

The next series deals with FXR:RXRa (Homo sapiens, UniProt Q96RI1;P19793 full;full). Described as above. Particulars: tags: His kept;His cleaved; copies: 1;1; label: surface-attached array probe. An outline of the steps: as §1
Sequence of FXR:RXRa (Q96RI1 whole entry, chain 1 of 2): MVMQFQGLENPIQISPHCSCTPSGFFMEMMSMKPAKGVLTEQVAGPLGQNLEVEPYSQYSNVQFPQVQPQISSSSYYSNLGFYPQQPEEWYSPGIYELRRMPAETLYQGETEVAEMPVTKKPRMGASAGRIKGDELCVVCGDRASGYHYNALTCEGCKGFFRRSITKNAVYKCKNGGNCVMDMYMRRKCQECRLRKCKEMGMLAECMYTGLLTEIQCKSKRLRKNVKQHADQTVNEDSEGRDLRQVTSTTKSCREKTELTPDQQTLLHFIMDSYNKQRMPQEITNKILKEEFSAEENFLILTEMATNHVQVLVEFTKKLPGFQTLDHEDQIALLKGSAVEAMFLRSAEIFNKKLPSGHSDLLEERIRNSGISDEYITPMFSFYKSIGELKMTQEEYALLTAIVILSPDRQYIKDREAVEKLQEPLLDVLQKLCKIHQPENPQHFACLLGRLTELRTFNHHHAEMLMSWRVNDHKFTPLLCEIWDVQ
Sequence of FXR:RXRa (P19793 whole entry, chain 2 of 2): as the sequence (P19793 whole entry, chain 2 of 2) above
The target in another series is LXRb:RXRa (Homo sapiens, UniProt P55055;P19793 full;full). The description is as above. To be noted: tags: His kept;His cleaved; copies: 1;1; label: surface-attached array probe. The procedure, abridged: as §1
Sequence of LXRb:RXRa (P55055 whole entry, chain 1 of 2): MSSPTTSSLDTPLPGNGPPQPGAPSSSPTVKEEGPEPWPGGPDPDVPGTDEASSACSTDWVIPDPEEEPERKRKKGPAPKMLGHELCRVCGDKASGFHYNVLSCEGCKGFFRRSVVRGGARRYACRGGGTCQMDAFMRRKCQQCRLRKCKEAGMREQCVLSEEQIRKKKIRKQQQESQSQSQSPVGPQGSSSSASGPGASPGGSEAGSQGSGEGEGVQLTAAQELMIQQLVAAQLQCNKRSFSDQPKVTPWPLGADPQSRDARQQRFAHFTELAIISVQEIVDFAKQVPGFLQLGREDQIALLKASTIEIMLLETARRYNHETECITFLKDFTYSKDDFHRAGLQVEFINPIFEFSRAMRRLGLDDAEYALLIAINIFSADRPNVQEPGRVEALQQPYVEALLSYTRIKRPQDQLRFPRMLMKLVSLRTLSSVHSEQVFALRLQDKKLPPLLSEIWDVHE
Sequence of LXRb:RXRa (P19793 whole entry, chain 2 of 2): as the sequence (P19793 whole entry, chain 2 of 2) above
The next series has as its target LXRa:RXRa (Homo sapiens, UniProt Q13133;P19793 full;full). The series is described as above. To be noted: tags: His kept;His cleaved; copies: 1;1; label: surface-attached array probe. The procedure, abridged:
as §1

Another series deals with RARb:RXRa (Homo sapiens, UniProt P10826;P19793 full;full). The description is as above. Particulars: tags: His kept;His cleaved; copies: 1;1; label: surface-attached array probe. An outline of the steps:
as §1

For another series, the target named is PPARa:RXRa (Homo sapiens, UniProt Q07869;P19793 full;full). The description is as above. To be noted: tags: GST kept;His cleaved; copies: 1;1; label: surface-attached array probe. An outline of the steps:
as §1

Sequence of LXRa:RXRa (Q13133 whole entry, chain 1 of 2): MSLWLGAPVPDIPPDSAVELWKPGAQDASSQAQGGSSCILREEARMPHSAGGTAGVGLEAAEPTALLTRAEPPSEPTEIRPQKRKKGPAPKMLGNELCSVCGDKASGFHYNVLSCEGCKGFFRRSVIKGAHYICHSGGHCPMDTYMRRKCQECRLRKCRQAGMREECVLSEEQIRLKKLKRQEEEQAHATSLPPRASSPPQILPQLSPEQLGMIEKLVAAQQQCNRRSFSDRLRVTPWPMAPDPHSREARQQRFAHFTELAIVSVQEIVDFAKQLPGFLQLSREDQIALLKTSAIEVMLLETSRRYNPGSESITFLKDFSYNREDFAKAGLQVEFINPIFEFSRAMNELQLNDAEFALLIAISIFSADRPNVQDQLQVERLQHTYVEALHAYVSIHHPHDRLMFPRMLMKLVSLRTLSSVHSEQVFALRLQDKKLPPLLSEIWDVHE
Sequence of LXRa:RXRa (P19793 whole entry, chain 2 of 2): as the sequence (P19793 whole entry, chain 2 of 2) above
Sequence of THRa:RXRa (P10827 other isoform, or with tags, fused parts or gaps, chain 1 of 2): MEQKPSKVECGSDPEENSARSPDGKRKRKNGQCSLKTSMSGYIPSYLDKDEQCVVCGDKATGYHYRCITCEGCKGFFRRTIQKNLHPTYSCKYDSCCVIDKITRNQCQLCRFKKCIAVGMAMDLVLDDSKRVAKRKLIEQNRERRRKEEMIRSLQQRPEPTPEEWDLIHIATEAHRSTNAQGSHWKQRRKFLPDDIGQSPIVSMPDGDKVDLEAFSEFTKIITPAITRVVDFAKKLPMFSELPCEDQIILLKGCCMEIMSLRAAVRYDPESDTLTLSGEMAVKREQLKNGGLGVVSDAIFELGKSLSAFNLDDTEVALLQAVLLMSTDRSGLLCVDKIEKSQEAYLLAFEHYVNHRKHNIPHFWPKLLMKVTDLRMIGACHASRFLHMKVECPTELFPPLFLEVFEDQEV
Sequence of THRa:RXRa (P19793 whole entry, chain 2 of 2): as the sequence (P19793 whole entry, chain 2 of 2) above

B1: NRC3_wobSeed142_DR5_G13C_o1 (dsDNA)
DNA 1: GCATACCAAGGTCATCGTGAGGTCGTTGATACTAACGCGATTGACAGCGTAGAATGAAGG
DNA 2: CCTTCATTCTACGCTGTCAATCGCGTTAGTATCAACGACCTCACGATGACCTTGGTATGC
On to B1, for which the binding signal with THRa:RXRa was 5.13 PBM z-score against 500 random probes; with RARg:RXRa it was 7.52 PBM z-score against 500 random probes; with VDR:RXRa, 7.1 PBM z-score against 500 random probes; with PXR:RXRa it was 6.51 PBM z-score against 500 random probes.

B2: NRC3_wobSeed97_DR4_A18G_o1 (dsDNA)
DNA 1: GCCAAACTAGGTCACGAGAGGTCAAAGTCGAATGACGCGATTGACAGCGTAGAATGAAGG
DNA 2: CCTTCATTCTACGCTGTCAATCGCGTCATTCGACTTTGACCTCTCGTGACCTAGTTTGGC
B2: the binding signal with THRa:RXRa is 5.49 PBM z-score against 500 random probes; in the series with VDR:RXRa, 7.3 PBM z-score against 500 random probes; with PXR:RXRa, 7.59 PBM z-score against 500 random probes; in the series with FXR:RXRa, 7.96 PBM z-score against 500 random probes.

B3: NRC3_wobSeed118_DR4_G13C_o1 (dsDNA)
DNA 1: GCTTACCAAGGTCAGCTGAGGTCGTTGATCCAACTCGCGATTGACAGCGTAGAATGAAGG
DNA 2: CCTTCATTCTACGCTGTCAATCGCGAGTTGGATCAACGACCTCAGCTGACCTTGGTAAGC
As for B3, the binding signal is 5.55 PBM z-score against 500 random probes with THRa:RXRa, 6.65 PBM z-score against 500 random probes in the series with VDR:RXRa and 6.89 PBM z-score against 500 random probes in the series with PXR:RXRa.

B4: NRC3_random_hg19_322_o1 (dsDNA)
DNA 1: GCTGTAAAGTGGTCCACTGACAGCTTCCACTCTTCTGCGATTGACAGCGTAGAATGAAGG
DNA 2: CCTTCATTCTACGCTGTCAATCGCAGAAGAGTGGAAGCTGTCAGTGGACCACTTTACAGC
For B4, the binding signal is -0.7 PBM z-score against 500 random probes with THRa:RXRa, -0.74 PBM z-score against 500 random probes with VDR:RXRa, -0.71 PBM z-score against 500 random probes in the series with LXRb:RXRa and -0.56 PBM z-score against 500 random probes in the series with PXR:RXRa.

B5: NRC3_random_hg19_185_o1 (dsDNA)
DNA 1: GCTAGTGAGTGAGTTCTCACAAGAAATGGTTGTTTAGCGATTGACAGCGTAGAATGAAGG
DNA 2: CCTTCATTCTACGCTGTCAATCGCTAAACAACCATTTCTTGTGAGAACTCACTCACTAGC
In the case of B5, the binding signal with THRa:RXRa was -0.23 PBM z-score against 500 random probes; with PXR:RXRa it was -0.01 PBM z-score against 500 random probes.

B6: NRC3_random_hg19_90_o1 (dsDNA)
DNA 1: GCTGAGTATTGTAGATTCATTGTTGAGATTCTAGATGCGATTGACAGCGTAGAATGAAGG
DNA 2: CCTTCATTCTACGCTGTCAATCGCATCTAGAATCTCAACAATGAATCTACAATACTCAGC
On to B6, for which the binding signal with THRa:RXRa was -0.22 PBM z-score against 500 random probes; with PXR:RXRa, -0.1 PBM z-score against 500 random probes.

B7: NRC3_wobSeed113_DR4_G15C_o1 (dsDNA)
DNA 1: GCATATGTAGGTTACCTGGGGTCATTCAGACTAGGCGCGATTGACAGCGTAGAATGAAGG
DNA 2: CCTTCATTCTACGCTGTCAATCGCGCCTAGTCTGAATGACCCCAGGTAACCTACATATGC
For B7, the binding signal with THRa:RXRa was 5.46 PBM z-score against 500 random probes; with LXRb:RXRa it was 8.08 PBM z-score against 500 random probes; in the series with LXRa:RXRa, 8.75 PBM z-score against 500 random probes.

B8: NRC3_random_hg19_109_o1 (dsDNA)
DNA 1: GCTGGTGTTTCATCACTGTGGCAACTTCCCACCTGGGCGATTGACAGCGTAGAATGAAGG
DNA 2: CCTTCATTCTACGCTGTCAATCGCCCAGGTGGGAAGTTGCCACAGTGATGAAACACCAGC
As to B8, the binding signal was -0.41 PBM z-score against 500 random probes in the series with THRa:RXRa and -0.28 PBM z-score against 500 random probes with PXR:RXRa.

B9: NRC3_wobSeed101_DR4_T23C_o1 (dsDNA)
DNA 1: GCCCTTACGGGTCACTCCAGGTCATAGCATCGGAGTGCGATTGACAGCGTAGAATGAAGG
DNA 2: CCTTCATTCTACGCTGTCAATCGCACTCCGATGCTATGACCTGGAGTGACCCGTAAGGGC
Take B9: the figures for the binding signal with THRa:RXRa, in the series with LXRb:RXRa and with LXRa:RXRa were 5.34 PBM z-score against 500 random probes, 7.16 PBM z-score against 500 random probes and 8.42 PBM z-score against 500 random probes, respectively.

B10: NRC3_random_hg19_412_o1 (dsDNA)
DNA 1: GCACAACAGATGCTGGAGAGGATATGGAGATCCTTTGCGATTGACAGCGTAGAATGAAGG
DNA 2: CCTTCATTCTACGCTGTCAATCGCAAAGGATCTCCATATCCTCTCCAGCATCTGTTGTGC
Take B10: the binding signal with THRa:RXRa was -0.82 PBM z-score against 500 random probes; in the series with LXRb:RXRa, -0.93 PBM z-score against 500 random probes; with LXRa:RXRa it was -0.73 PBM z-score against 500 random probes; with FXR:RXRa it was -0.81 PBM z-score against 500 random probes.

B11: NRC3_wobSeed87_DR3_T8G_o1 (dsDNA)
DNA 1: GCCGAACGAGGTCATCCAGGACAGTGAATACATTGAGCGATTGACAGCGTAGAATGAAGG
DNA 2: CCTTCATTCTACGCTGTCAATCGCTCAATGTATTCACTGTCCTGGATGACCTCGTTCGGC
For the molecule B11, the binding signal in the series with THRa:RXRa was 4.78 PBM z-score against 500 random probes; in the series with VDR:RXRa, 6.85 PBM z-score against 500 random probes; with PXR:RXRa it was 6.36 PBM z-score against 500 random probes; with FXR:RXRa, 8.44 PBM z-score against 500 random probes.

B12: NRC3_random_hg19_394_o1 (dsDNA)
DNA 1: GCGAGATCGAGACCATCTTGGCTAACACGGTGAAACGCGATTGACAGCGTAGAATGAAGG
DNA 2: CCTTCATTCTACGCTGTCAATCGCGTTTCACCGTGTTAGCCAAGATGGTCTCGATCTCGC
Turning to B12, the binding signal with THRa:RXRa was -0.09 PBM z-score against 500 random probes; in the series with PXR:RXRa, -0.39 PBM z-score against 500 random probes.

B13: NRC3_wobSeed85_DR3_G15C_o1 (dsDNA)
DNA 1: GCCGTCCAAGGTCACAGAGGTCAGTGAATGCCGAGTGCGATTGACAGCGTAGAATGAAGG
DNA 2: CCTTCATTCTACGCTGTCAATCGCACTCGGCATTCACTGACCTCTGTGACCTTGGACGGC
For the molecule B13, the binding signal in the series with THRa:RXRa is 4.91 PBM z-score against 500 random probes; in the series with RARb:RXRa, 5.99 PBM z-score against 500 random probes; with PPARa:RXRa, 6.53 PBM z-score against 500 random probes; with RARg:RXRa it was 7.46 PBM z-score against 500 random probes; with LXRb:RXRa it was 5.81 PBM z-score against 500 random probes; with PXR:RXRa, 6.95 PBM z-score against 500 random probes. In the series with FXR:RXRa, the binding signal is 7.83 PBM z-score against 500 random probes.

B14: NRC3_wobSeed85_DR3_G24T_o1 (dsDNA)
DNA 1: GCCGTCCAAGGTCAGAGAGGTCATTGAATGCCGAGTGCGATTGACAGCGTAGAATGAAGG
DNA 2: CCTTCATTCTACGCTGTCAATCGCACTCGGCATTCAATGACCTCTCTGACCTTGGACGGC
As for B14, the binding signal with THRa:RXRa is 4.8 PBM z-score against 500 random probes; with RARb:RXRa, 5.65 PBM z-score against 500 random probes; in the series with VDR:RXRa, 8.16 PBM z-score against 500 random probes; with PXR:RXRa, 7.16 PBM z-score against 500 random probes.

B15: NRC3_wobSeed116_DR4_A21G_o1 (dsDNA)
DNA 1: GCAGAATGAGGTTACCAAAGGTCAGGGAAACGCTTGGCGATTGACAGCGTAGAATGAAGG
DNA 2: CCTTCATTCTACGCTGTCAATCGCCAAGCGTTTCCCTGACCTTTGGTAACCTCATTCTGC
Turning to B15, the values for the binding signal with THRa:RXRa, with LXRb:RXRa and with LXRa:RXRa were 5.21 PBM z-score against 500 random probes, 8.32 PBM z-score against 500 random probes and 9.08 PBM z-score against 500 random probes, respectively.

B16: NRC3_wobSeed98_DR4_T9A_o1 (dsDNA)
DNA 1: GCACTAGTAGGTCAGCTGAGGTCACACACAATTCGGGCGATTGACAGCGTAGAATGAAGG
DNA 2: CCTTCATTCTACGCTGTCAATCGCCCGAATTGTGTGTGACCTCAGCTGACCTACTAGTGC
With B16, the binding signal is 5.78 PBM z-score against 500 random probes in the series with THRa:RXRa, 6.98 PBM z-score against 500 random probes with VDR:RXRa and 7.12 PBM z-score against 500 random probes with PXR:RXRa.

B17: NRC3_wobSeed98_DR4_T9G_o1 (dsDNA)
DNA 1: GCACTAGTGGGTCAGCTGAGGTCACACACAATTCGGGCGATTGACAGCGTAGAATGAAGG
DNA 2: CCTTCATTCTACGCTGTCAATCGCCCGAATTGTGTGTGACCTCAGCTGACCCACTAGTGC
As to B17, the binding signal in the series with THRa:RXRa was 5.78 PBM z-score against 500 random probes; in the series with VDR:RXRa, 6.63 PBM z-score against 500 random probes; with PXR:RXRa, 6.95 PBM z-score against 500 random probes.

B18: NRC3_random_hg19_439_o1 (dsDNA)
DNA 1: GCTATGGTTTGGCTGTGTCTCCATTCAAATCTCAACGCGATTGACAGCGTAGAATGAAGG
DNA 2: CCTTCATTCTACGCTGTCAATCGCGTTGAGATTTGAATGGAGACACAGCCAAACCATAGC
Regarding B18, the binding signal was 0.36 PBM z-score against 500 random probes with THRa:RXRa and 0.5 PBM z-score against 500 random probes in the series with PXR:RXRa.

B19: NRC3_wobSeed49_DR2_T8C_o1 (dsDNA)
DNA 1: GCCAAACCAGGTCAAGAGGTCAAAGTCCGCTTCCCGGCGATTGACAGCGTAGAATGAAGG
DNA 2: CCTTCATTCTACGCTGTCAATCGCCGGGAAGCGGACTTTGACCTCTTGACCTGGTTTGGC
In the case of B19, the values for the binding signal in the series with THRa:RXRa, with PXR:RXRa and in the series with FXR:RXRa were 4.82 PBM z-score against 500 random probes, 6.81 PBM z-score against 500 random probes and 7.9 PBM z-score against 500 random probes, respectively.
